# Reference: the nanobody polyreactivity screen of Harvey et al. (2022)
# Test: yeast display, Sf9 membrane polyspecificity reagent, FACS + sequencing; frameworks hold sequencing errors
# Procedure, shortened: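 Using colony PCR, genes from sorted yeast display clones were amplified, then sequenced on MiSeq at 2 × 250 and filtered by CDR length. The clones had been stained with 10% biotinylated, detergent-solubilized Sf9 membrane reagent for 1 hour at 4 °C and sorted by FACS into low and high (top ~1%) gates on anti-HA and streptavidin fluorescence. Polyreactivity labels come from the gate of origin.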
row,Sequence,polyreactivity (PSR sort gate)
1,QVQLVESGGGLVQAGGSLRLSCAASGSTFFSKAMGWSRQEPGKERELVAAISRSGATTSYADSVKGRFTISRDNAKNTVYLQMNSLKPEDTAVYYCAVGRRYYQDYDYSGQGTQVTVSS,high polyreactivity
2,QVQLVESGGGLVQAGGSLRLSCAASGSTFFSNAMGWYRQAPGKERELVAAISGSGDSTYYADSVKGRFTISRDNAKNTVYLQMNSLKPEDTAVYYCAARLSTAHYYLGDYWGQGTEVTVSS,low polyreactivity
3,QVQLVESGGGLVQAGGSLRLSCAASGSTFFTYAMGWYRQAPGKERELVAAISWSGGTTYYADSVKGRFTISRDNAKNTVYLQMNSLKPEDTAVYYCASDRDGILKANDYWGQGTQVTVSS,low polyreactivity
4,QVQLVESGGGLVQAGGSLRLSCAASGSTFFTYAMGWYRQAPGKERELVAGISYSGGSTYYADSVKGRFTISRDNAKNTVYVQMNSLKPEDTAVYYCNAYISYGDFDLEFYYWGQGTQVTVSS,low polyreactivity
5,QVQLVESGGGLVQAGGSLRLSCAASGSTFFYNAMGWYRQAPGKERELVAAISRGGGITYYADSVKGRFTISRDNAKNTVYLQMNSLKPEDTAVYYCQYLSRGLNTYRSSQGDDDYWGQGTQVTVSS,high polyreactivity
6,QVQLVESGGGLVQAGGSLRLSCAASGSTFFYYAMGWYRQAPGKDRELVAAISGGGGDTTYADSVKGRFTISRDNAKNTVYLQMNSLKPEDTAVYYCAAVPGSFGSGIFDYWGQGTQATVSS,low polyreactivity
7,QVQLVESGGGLVQAGGSLRLSCAASGSTFFYYAMGWYRQAPGKERELVAAISQSSASTYYADSVKGRFTISRDNAKNTIYLQMNSLKPEDTAVYYCAADYWSVPYIYEYWGQGTQVTVSS,high polyreactivity
8,QVQLVESGGGLVQAGGSLRLSCAASGSTFGANAMGGYRQAPGKERELVATISSGGRTYYADSVKGRFTISRDNAKNTVYLQMNSLKPEDTAVYYCNAGADYTYVYISVYVLYDYWGQGTQVTVSS,low polyreactivity
9,QVQLVESGGGLVQAGGSLRLSCAASGSTFGANAMGLYRQAPGKEREFVAAISRSGVRTYYADSVKGRFTISRDNAQNTVYLQMNSLKPEDTAVYYCAADGYWWTYTRYDYWGQGTQVTVSS,low polyreactivity
10,QVQLVESGGGLVQAGGSLRLSCAASGSTFGANAMGWYRQAPGKERELVAAITYDGGSTYYADSVKGRFTISRDTAKNTVYLQMNSLKPEDTAVYYCAADFHIDSYYWGYYWGQGTQVTVSS,low polyreactivity
11,QVQLVESGGGLVQAGGSLRLSCAASGSTFGAYAMGWYRQAPGKEREFVAGISVRGGSTYYADSVKGRFTISRDNAKNTVYLQMNSLKPEDTAVYYCAARRVDTRVHVRYRYYYWGQGTQVTVSS,high polyreactivity
12,QVQLVESGGGLVQAGGSLRLSCAASGSTFGAYAMGWYRQAPGKERELVAAISKRGGSTYYADSVKGRFTISLDNAKNTVYLQMNSLKPEDTAVYYCATDHFSPTYGYWGQGTQVTVSS,low polyreactivity
13,QVQLVESGGGLVQAGGSLRLSCAASGSTFGAYAMGWYRQAPGKERELVAAISSSDGSTYYADSVKGRFTISRDNAKNTVYLQMNSLKPEDTAVYYCAAEYYSAVYIDEYWYDYWGQGTQVTVSS,high polyreactivity
14,QVQLVESGGGLVQAGGSLRLSCAASGSTFGAYAMGWYRQAPGKERELVAAISSSGGRTYYADSVKGRFTISRDNAKNTVYLQMNSLKPEDTAVYYCATYYRHYDLLYYYWGQGTQVTVSS,high polyreactivity
15,QVQLVESGGGLVQAGGSLRLSCAASGSTFGDYAMGWYRPAPGKERELVAAITIGGITTYADSVKGRFTISRDNAKNTVYLQMNSLKPEDTAVYYCAAAERGDWDDYWGQGTQVTVSS,low polyreactivity
16,QVQLVESGGGLVQAGGSLRLSCAASGSTFGDYAMGWYRQAPGKERELVAAISFSDDSTYYADSVKGRFTISRDNAKNTVYLQMNSLKPEDTAVYYCAKEAEYSTPGGDYWGQGTQVTVSS,low polyreactivity
17,QVQLVESGGGLVQAGGSLRLSCAASGSTFGENAMGWYRQAPGKERELVAAINYSGGSTYYADSVKGRFTISRDNAKNTVYLQMNRLKPEDTAVYYCAAVNLPQLYYDYDYWGQGTQVTVSS,low polyreactivity
18,QVQLVESGGGLVQAGGSLRLSCAASGSTFGENDMGWYRQAPGKERELVAAITWSGGSTYYADSVKGRFTISRDNAKNPVYLQLNSLNPEDTAVYYCAARSTYRHWYRTGSRFDYWGQGTQVTVSS,low polyreactivity
19,QVQLVESGGGLVQAGGSLRLSCAASGSTFGEYAMGWYRQAPGKERELVAAITFSGGSTYYADSVKGRFTISRDNAKNTVYLQMNSLKPEDTAVYYCNADGVWVYGYRWEWLWYDYWGQGTQVTVSS,low polyreactivity
20,QVQLVESGGGLVQAGGSLRLSCAASGSTFGFNAMGWYRQAPGKERELVAAIRGGDSTNYADSVKGRFTISRDNAKNTVYLQMNSLKPEDTAVYYCAAVLRYVVRPYSYWSGGYDYWGQGTQVTVSS,high polyreactivity
21,QVQLVESGGGLVQAGGSLRLSCAASGSTFGFNAMGWYRQAPGKERELVAAISRSGGSTYYADSVKGRFTISRDNAKNTVYLQMNSLKPEDTAVYYCAVGYRYLKWVDYWGQGTQVTVSS,high polyreactivity
22,QVQLVESGGGLVQAGGSLRLSCAASGSTFGFNAMGWYRQAPGKERELVASITSGDSTYYADSVKGRFTISRDNAKNTVYLQMNSLKPEDTAVYYCAKVGGGGQAGDNPILSDYWGQGTQVTVSS,low polyreactivity
23,QVQLVESGGGLVQAGGSLRLSCAASGSTFGFNVMGWYRPAPGKERELVAAIRYRDGSTYYADSVKGRFTISRDNAKNTVYLQMNSLKPEDTAVYYCNTRITQVGDYIYDYWGQGTQVTVSS,low polyreactivity
24,QVQLVESGGGLVQAGGSLRLSCAASGSTFGFNVMGWYRQAPGKERELVAVITSDGNTYYADSVKGRFTISRDNAKNTVYLQMNSLKPEDTAVYYCAVSELGTPYGYWGQGTQVTVSS,low polyreactivity
25,QVQLVESGGGLVQAGGSLRLSCAASGSTFGFYAMGWYRQAPGKERELVAAIDWISGSTYYADSVKGRFTISRDNAKNTVYLQLNSLKPEDTAVYYCAAQFYYHFRYHFDWGQGTQVTVSS,low polyreactivity
26,QVQLVESGGGLVQAGGSLRLSCAASGSTFGGNAMGWYRQAPGKEREFVAAIRFSGGSTYYADSVKGRFTISRDNAKNTVYLQMNSLKPEDTAVYFCAKRGYGHLIPIAYEYWGQGTQVTVSS,low polyreactivity
27,QVQLVESGGGLVQAGGSLRLSCAASGSTFGGNAMGWYRQAPGKERELVAAITVGGDSTYYADSVKGRFTISRDNAKNTVYLQMNSLKPEVTAVYYCAAGPWYKFYDWRPWFSYDYWGQGTQVTVSS,low polyreactivity
28,QVQLVESGGGLVQAGGSLRLSCAASGSTFGGYAKGWYRQAPGKERELVAAISGSGVRTYYADSVKGRFTISRDNAKNTVYLQMNSLKPEDTAVYYCAKRVRYPGDRYYYWGQGTQVTVSS,high polyreactivity
29,QVQLVESGGGLVQAGGSLRLSCAASGSTFGGYAMGWYRQAPGKEREFVAAITKRGGRTYYADSVKGRFTISRDNAKNTVYLQMNSLKPEDTAVYYCATRGINYAEYDYWGQGTQVTVSS,high polyreactivity
30,QVQLVESGGGLVQAGGSLRLSCAASGSTFGGYAMGWYRQAPGKERELVADIDSIGGSTYYADSVKGRFTISRDNAKNTVYLQMNSLKPEDTAVYYCAARRFDTALVLYDYWGQGTQVTVSS,low polyreactivity
